From patent US20050119163A1

Molecular target: Biotinylated Grb2 SH2 domain protein (UniProt P62993)
Test: SPR (Biacore S51), b-Grb2 amine-coupled on CM5 chip, compound in solution

Chain of Biotinylated Grb2 SH2 domain protein (P62993 60-152 limits assumed): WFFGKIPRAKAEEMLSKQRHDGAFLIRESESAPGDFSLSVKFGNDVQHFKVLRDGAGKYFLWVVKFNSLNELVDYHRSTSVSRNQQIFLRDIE

Kd: 1.67 nM
Substance: Compound 6, tri-sodium salt of compound 5: 2-{(9S,10S,14R,18S)-7,16,19-Triaza-18-(carbamoylmethyl)-14-[(5-methyl indolyl)methyl]-8,17,20-trioxo-10-[4-(phosphonomethyl)phenyl]spiro[5.14]icos-11-en-9-yl}acetic acid (peptide)
